Measured values published in the DeepSol protein solubility set.

Test: soluble on expression in E. coli; label from the status in PepcDB or PDB records

Row | Sequence | soluble on expression in E. coli
1 | MGFLNKLLSSEGPRKPKVKFDLQKCKVLLKGGENRIRLQKSKLAVCNLLASPVPALKNLFNKNSVKLQQREVAVLLEGGKDELARIRAEQMVRDELLIESYEIVEVLCETLLTRHNLLALNFHATKENPYPPLPPEIAEAVCSIAFASCRLDASELQTLTEMLASRFGPELIDSACAGQPSQRVWGVNSLVNPRLYSKLLYSVPDGNVVLQKLQDIADMFQLEWKAPAEFEELKDHSVLDSTASTPVFSGNAQRARYLPEASSFSDEKIGDDVFCTNESEQTEEGRDPSDDLSARLEALKRNR | not soluble
2 | MGFMIEHWDFSTPMATQETTTAEHIQPNHWYHCERLHPDIRSWLEDNHVPRATVDHLLADESRPSFHPLDDDNFMLILRGINMNENASPEDMLSIRILYFQGALISTRKIPSRAIMEIRQALAEHKGPKSLASLLNQIIEGLNGKIDLYLDTIEETLNEFDVNDESTYNHIAAQKALISIKRFIRPQQYAIRDLIESESELVTSRPHQYRFAHNNITRINETIEFYLGEVALFQDEIKHNRDEKTNKNSYLFTLVATIFLPTSFLTGLL | not soluble
3 | MGFQLRGDYLLDDDLQTLYVSSSDIHGELTRLVKLNLTRNQVNVLKHSKADVPELRILSDKLDRRTLSLFSNGQVAEYELIYSVHYQVRFTGEDARDFRFELYRDYQDDPNIALAKSRELSLLLSEMRTSAADKILRDLARIQRLEHHHHHH | soluble
4 | MGGDRAPDEILKGALLASKEVEGEIVLIGPEEIVKNKGLPFVSASEIVKMDDPPLEVLRKKNSSMHMGLKLLSEGKVDAFVSAGATGPLFLGATSIVGKLEGIERPALGVAVPSLKGATVLIDAGANAKVRPEHLVDFAFMGIAYSKVLGAENPRVGLLNMGSEENKGPDDIKRAYQLLKEFLGDTFFGNVEGHDINLGTVDVVVADGFSGNVALKTMEGTAKLVTSVLKESIKDGGFLSLLGALLMKRSFDKMKEKLDPRSYGGTFILGVKGIVVKAHGSSDAKAIKHAIKVAEKGIRVNIVQEIERGISHVRNSGDGR | soluble
5 | MGGKSNGEKKYIVGFKQGFKSCAKKEDVISEKGGKLQKCFKYVDAASATLNEKAVEELKKDPSVAYVEEDKLYRALSATS | soluble
6 | MGGMDTGVTSPRVLVVDDDSDVLASLERGLRLSGFEVATAVDGAEALRSATENRPDAIVLDINMPVLDGVSVVTALRAMDNDVPVCVLSARSSVDDRVAGLEAGADDYLVKPFVLAELVARVKALLRRRGSTATSSSETITVGPLEVDIPGRRARVNGVDVDLTKREFDLLAVLAEHKTAVLSRAQLLELVWGYDFAADTNVVDVFIGYLRRKLEAGGGPRLLHTVRGVGFVLRMQ | soluble
7 | MGGPGETQIEADRRLLQDRIVKLEKELEQVVRTRQLHRAKRRKVPHPIVALVGYTNAGKSTLFNRITGAGVLAEDMLFATLDPTLRRMKLPHGRTVILSDTVGFISDLPTHLVAAFRATLEEVLEADLVLHVRDMSDPDNAAQSADVLRILGDLGIDEKEAEKRIIEVWNKVDRLEPEAHDAIMQRAEGRSDIRAVSAITGEGVDALMEEISKRLSGVLTETTVVLSVEQLPLISWVYSNSIVDNREDHEDGSVALDVRLSEAQAVELERKLGKTAGREREDWERAAALEHHHHHH | not soluble
8 | MGGSHHHHHHGMASALATRQRESSITSCCSTSSCDADDEGVRGTCEDASLCKRFAVSIGYWHDPYIQHFVRLSKERKAPEINRGYFARVHGVSQLIKAFLRKTECHCQIVNLGAGMDTTFWRLKDEDLLPSKYFEVDFPMIVTRKLHSIKCKPPLSSPILELHSEDTLQMDGHILDSKRYAVIGADLRDLSELEEKLKKCNMNTQLPTLLIAECVLVYMTPEQSANLLKWAANSFERAMFINYEQVNMGDRFGQIMIENLRRRQCDLAGVETCKSLESQKERLLSNGWETASAVDMMELYNRLPRAEVSRIESLEFLDEMELLEQLMRHYCLCWATKGGNELGLKEITY | not soluble
9 | MGGSHHHHHHGMASGKSDFLTPKAIANRIKSKGLQKLRWYCQMCQKQCRDENGFKCHCMSESHQRQLLLASENPQQFMDYFSEEFRNDFLELLRRRFGTKRVHNNIVYNEYISHREHIHMNATQWETLTDFTKWLGREGLCKVDETPKGWYIQYIDRDPETIRRQLELEKKKKQDLDDEEKTAKFIEEQVRRGLEGKEQEVPTFTELSRENDEEKVTFNLSKGACSSSGATSSKSSTLGPSALKTIGSSASVKRKESSQSSTQSKEKKKKKSALDEIMEIEEEKKRTARTDYWLQPEIIVKIITKKLGEKYHKKKAIVKEVIDKYTAVVKMIDSGDKLKLDQTHLETVIPAPGKRILVLNGGYRGNEGTLESINEKTFSATIVIETGPLKGRRVEGIQYEDISKLA | not soluble
10 | MGGSHHHHHHGMASWPPPRCPLGVPLVLDGCGCCRVCARRLGEPCDQLHVCDASQGLVCQPGAGPGGRGALCLLAEDDSSCEVNGRLYREGETFQPHCSIRCRCEDGGFTCVPLCSEDVRLPSWDCPHPRRVEVLGKCCPEWVCGQGGGLGTQPLPAQGPQFSGLVSSLPPGVPCPEWSTAWGPCSTTCGLGMATRVSNQNRFCRLETQRRLCLSRPCPPSRGRSPQNSAF | not soluble
11 | MGGSVAAQDEFYRSGWALNMKELKLLQTIGKGEFGDVMLGDYRGNKVAVKCIKNDATAQAFLAEASVMTQLRHSNLVQLLGVIVEEKGGLYIVTEYMAKGSLVDYLRSRGRSVLGGDCLLKFSLDVCEAMEYLEGNNFVHRDLAARNVLVSEDNVAKVSDFGLTKEASSTQDTGKLPVKWTAPEALREKKFSTKSDVWSFGILLWEIYSFGRVPYPRIPLKDVVPRVEKGYKMDAPDGCPPAVYEVMKNCWHLDAAMRPSFLQLREQLEHIKTHELHL | soluble
12 | MGHAKHLIDGNIETFWHSRWQGGSDPLPYEIIIDMNHRVKIAQIELLPRGRGSNNPIKVVRFEASEDGTNWESIGQFGFTNQDAALKYYVKSSTARYIKLVIPDGVGNGTVAAIRELDVRGTVVNLEHHHHHH | not soluble
13 | MGHHHHHHGGHMSLDYQKEYERKLISPEEAANLVKDGMHIEIGGSANTALIIDKYLAKRKDELSHVEVGTFIDIAHYEFLKADPEQEKIKWESCFLYEPVRKCSKELGPCVHRPGVLSDAGYIAKELGGVLKGGKKYTDIAFLVTTPMDRHGFFNFGVTCTFLKSIAEGAEKVVVVVKKDMPWVNGGYDECIHISEVDYIVEDNEFPTPFLPFLPPPSKEDEMIAENIMEAGLIENGSTLQVGIGGLPNTVVRMLKEAGLKDLGIHTEMMGDGLMELMEEGIVTNQNKKLDRGKAVFSFALGTRKLYDFLDRNPEVATYPVEYTNNPFVVAQQPKMFSLNQVAQIDLMGQINSGQIGLTSPSGKIFQISGTGGQLDFVLGCFYSFDRQGKSVLATYSTYNGTSRIIPALPTGAGVTVPRSVVQYVATEWGIAYLRGLPIYKRAAAMIQLAHPDHRDWLEEEARKLGILPPKYSIPAGKADGVIYRRDEGGS | soluble
14 | MGHHHHHHGGHMSLEIVKEVERLIREGKILDAFELVKQSAPEELRERIEKSFRDAEEIKKLDGIWKKLMLILHFVYASQDAVERQDKQSLVSCVVSSVNAIKLTIELGMKSITPVLMRNAARALILMDMKENAERMYTEAEKICEENRDEEMLAAIENDLATLYYDMGKYNEAKVKAEEALEIRRKIGTKEELAESLATASEIYVKLGDFDEAEECYREAEKLYRELVEEAESFKLNLAILLSNYAMFRKKLGRYQEAEKMFKEALEIFQNLERIDADFMQFVAAAYRHLGDLYREMKEYSKAEEYYKLSREKFRDIQKRWESVASEGGS | soluble
15 | MGHHHHHHGGHMSLIISSLTNPNFKVGLPKVIAEVCDYLNTLDLNALENGRHDINDQIYMNVMEPETAEPSSKKAELHHEYLDVQVLIRGTENIEVGATYPNLSKYEDYNEADDYQLCADIDDKFTVTMKPKMFAVFYPYEPHKPCCVVNGKTEKIKKLVVKVPVKLIEGGS | soluble
16 | MGHHHHHHGGHMSLLTFVGLGLWDVKDISVKGLEAVREADEVYVEYYTSKLLSSIEEMEEFFGKRVVELERSDLEENSFRLIERAKSKSVVLLVPGDPMVATTHSAIKLEAERKGVKTRIIHGASISTAVCGLTGLHNYRFGKSATVSWHRSQTPVNVIKANRSIDAHTLLFLDLHPEPMTIGHAVENLIAEDAQMKDLYAVGIARAGSGEEVVKCDRLENLKKIDFGKPLHVMVVLAKTLHFMEFECLREFADAPAELERLVAEGGS | soluble
